These results are taken from patent US20190119389A1 (POTENZA THERAPEUTICS, published 2019).

Numbering of substitutions follows the chain as printed. Names and notes keep the numbering of the source.

For orientation: Kd means the equilibrium constant for the complex coming apart. Read a high Kd as lower affinity. By IC50 is commonly meant the concentration at which inhibition is half-maximal.

One experiment concerns the target T1, Mouse NRP-1 His (mouse, UniProt P97333 22-856).
T1 construct: Recombinant monomeric protein; also called mNRP-1; not shown: His tag
The experiment is described as follows: BLI Octet QKe, IgG4 S228P on AHC sensor, multi-concentration monomeric antigen, global 1:1 fit. (In general: Biolayer interferometry detects binding as a change in optical thickness at a sensor tip.)

The next experiment addresses T2, Human NRP-1 His (human, UniProt O14786 22-856).
T2 construct: Recombinant monomeric protein; Biotinylated in the MSD-SET assay; also called hNRP-1; not shown: His tag
The experiment is described as above.

Another experiment addresses T3, Cyno NRP-1 His (cynomolgus monkey, UniProt O14786 22-856 (human entry), limits assumed).
T3 construct: Recombinant monomeric protein; also called cynomolgus monkey NRP-1-His; cNRP-1; not shown: His tag
T3 chain: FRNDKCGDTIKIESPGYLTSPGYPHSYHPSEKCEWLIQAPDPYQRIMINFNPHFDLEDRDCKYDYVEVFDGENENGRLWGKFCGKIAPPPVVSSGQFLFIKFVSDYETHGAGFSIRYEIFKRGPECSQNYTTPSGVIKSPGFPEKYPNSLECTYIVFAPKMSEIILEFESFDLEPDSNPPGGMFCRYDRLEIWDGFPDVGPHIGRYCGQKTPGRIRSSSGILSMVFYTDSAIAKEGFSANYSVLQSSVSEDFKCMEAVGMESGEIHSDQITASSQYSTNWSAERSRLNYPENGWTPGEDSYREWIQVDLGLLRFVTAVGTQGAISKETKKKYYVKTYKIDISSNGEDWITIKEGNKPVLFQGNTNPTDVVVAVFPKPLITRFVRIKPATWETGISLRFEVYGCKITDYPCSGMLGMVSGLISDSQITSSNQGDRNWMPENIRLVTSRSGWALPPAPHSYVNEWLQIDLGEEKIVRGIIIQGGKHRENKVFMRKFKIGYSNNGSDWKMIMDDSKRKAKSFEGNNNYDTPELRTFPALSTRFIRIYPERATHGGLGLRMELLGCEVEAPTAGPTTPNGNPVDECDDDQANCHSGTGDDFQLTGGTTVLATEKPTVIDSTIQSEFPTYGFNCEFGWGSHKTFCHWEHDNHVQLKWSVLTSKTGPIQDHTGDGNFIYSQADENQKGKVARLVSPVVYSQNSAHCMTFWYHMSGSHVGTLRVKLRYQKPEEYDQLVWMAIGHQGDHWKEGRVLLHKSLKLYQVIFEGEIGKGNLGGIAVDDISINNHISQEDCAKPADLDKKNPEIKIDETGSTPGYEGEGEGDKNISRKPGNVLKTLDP
The description is as above.

Experiment [1] deals with T4, recombinant human NRP-1 (human, UniProt O14786 22-856, limits assumed).
T4 construct: also called biotinylated human NRP-1
The experiment is described as follows: blocking ELISA, average of n=2: human NRP-1 coated, VEGFA added with IgG4 antibody; competitor VEGFA.

For experiment [2], the target named is T4, recombinant human NRP-1. Put plainly: blocking ELISA, average of n=2: SEMA3A coated, biotinylated human NRP-1 preincubated with IgG4 antibody; competitor SEMA3A. A general note: ELISA stands for enzyme-linked immunosorbent assay.
Target sequence in this assay (O14786 22-856 V179A limits assumed): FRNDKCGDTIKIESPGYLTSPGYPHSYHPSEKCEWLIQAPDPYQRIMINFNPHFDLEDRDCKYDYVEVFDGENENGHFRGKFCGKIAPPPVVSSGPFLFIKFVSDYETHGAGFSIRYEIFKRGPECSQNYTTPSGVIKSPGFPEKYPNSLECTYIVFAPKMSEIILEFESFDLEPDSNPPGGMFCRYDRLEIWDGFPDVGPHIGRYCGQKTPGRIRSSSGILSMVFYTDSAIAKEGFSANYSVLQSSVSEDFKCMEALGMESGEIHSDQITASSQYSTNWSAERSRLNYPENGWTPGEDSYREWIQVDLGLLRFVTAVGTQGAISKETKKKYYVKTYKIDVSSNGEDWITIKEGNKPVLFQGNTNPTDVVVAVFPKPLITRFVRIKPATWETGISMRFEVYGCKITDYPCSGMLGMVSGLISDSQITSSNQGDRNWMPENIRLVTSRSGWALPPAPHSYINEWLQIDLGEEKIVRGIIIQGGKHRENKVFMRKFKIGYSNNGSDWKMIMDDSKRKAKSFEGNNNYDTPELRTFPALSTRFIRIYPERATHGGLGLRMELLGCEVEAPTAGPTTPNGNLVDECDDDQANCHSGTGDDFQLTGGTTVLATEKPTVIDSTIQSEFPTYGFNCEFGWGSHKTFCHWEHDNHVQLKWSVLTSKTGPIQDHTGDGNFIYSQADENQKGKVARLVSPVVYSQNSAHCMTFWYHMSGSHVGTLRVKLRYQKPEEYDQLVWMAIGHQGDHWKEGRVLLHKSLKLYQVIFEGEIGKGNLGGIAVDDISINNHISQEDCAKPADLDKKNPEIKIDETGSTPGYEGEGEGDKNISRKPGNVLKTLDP
Experiment [3] concerns the target T5, Recombinant human NRP-1-Fc fusion protein, a2b1b2 domains (human, UniProt O14786 147-583, limits assumed).
T5 construct: Only the named domains of hNRP-1 are in the construct; not shown: Fc
The experiment is described as follows: BLI Octet QKe, antibody on AHC sensor, NRP-1-Fc fragment 500 nM.

Experiment [4] concerns the target T6, Recombinant human NRP-1-Fc fusion protein, a1a2b1b2 domains (human, UniProt O14786 22-583, limits assumed).
T6 construct: Only the named domains of hNRP-1 are in the construct; not shown: Fc
The description is as above.

Experiment [5] concerns the target T7, Recombinant human NRP-1-Fc fusion protein, a1a2b1 domains (human, UniProt O14786 22-424, limits assumed).
T7 construct: Only the named domains of hNRP-1 are in the construct; not shown: Fc
The description is as above.

T1 sequence (P97333 22-856 limits assumed): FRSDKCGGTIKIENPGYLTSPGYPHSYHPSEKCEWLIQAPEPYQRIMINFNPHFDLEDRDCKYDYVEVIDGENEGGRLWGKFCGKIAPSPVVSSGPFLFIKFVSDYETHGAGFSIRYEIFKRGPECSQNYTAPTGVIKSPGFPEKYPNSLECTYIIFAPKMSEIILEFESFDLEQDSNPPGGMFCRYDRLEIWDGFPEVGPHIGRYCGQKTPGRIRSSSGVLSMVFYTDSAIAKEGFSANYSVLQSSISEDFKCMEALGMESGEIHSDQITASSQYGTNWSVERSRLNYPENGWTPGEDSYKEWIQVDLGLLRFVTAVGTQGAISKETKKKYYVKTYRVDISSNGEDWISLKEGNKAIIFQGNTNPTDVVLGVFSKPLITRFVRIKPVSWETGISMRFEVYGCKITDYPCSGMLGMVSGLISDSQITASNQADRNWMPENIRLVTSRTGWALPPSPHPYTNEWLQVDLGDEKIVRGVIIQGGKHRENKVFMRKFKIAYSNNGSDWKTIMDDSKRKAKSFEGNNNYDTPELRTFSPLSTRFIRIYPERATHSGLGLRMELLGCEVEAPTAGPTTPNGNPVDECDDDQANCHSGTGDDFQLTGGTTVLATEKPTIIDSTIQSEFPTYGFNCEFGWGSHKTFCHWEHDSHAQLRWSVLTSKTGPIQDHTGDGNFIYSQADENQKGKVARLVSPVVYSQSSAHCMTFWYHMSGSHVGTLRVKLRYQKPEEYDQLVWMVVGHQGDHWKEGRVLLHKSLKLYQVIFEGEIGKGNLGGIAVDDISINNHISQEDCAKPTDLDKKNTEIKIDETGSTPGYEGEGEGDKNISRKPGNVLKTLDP
T2 sequence (O14786 22-856 V179A limits assumed): as the sequence (O14786 22-856 V179A limits assumed) above
T5 sequence (O14786 147-583 V179A limits assumed): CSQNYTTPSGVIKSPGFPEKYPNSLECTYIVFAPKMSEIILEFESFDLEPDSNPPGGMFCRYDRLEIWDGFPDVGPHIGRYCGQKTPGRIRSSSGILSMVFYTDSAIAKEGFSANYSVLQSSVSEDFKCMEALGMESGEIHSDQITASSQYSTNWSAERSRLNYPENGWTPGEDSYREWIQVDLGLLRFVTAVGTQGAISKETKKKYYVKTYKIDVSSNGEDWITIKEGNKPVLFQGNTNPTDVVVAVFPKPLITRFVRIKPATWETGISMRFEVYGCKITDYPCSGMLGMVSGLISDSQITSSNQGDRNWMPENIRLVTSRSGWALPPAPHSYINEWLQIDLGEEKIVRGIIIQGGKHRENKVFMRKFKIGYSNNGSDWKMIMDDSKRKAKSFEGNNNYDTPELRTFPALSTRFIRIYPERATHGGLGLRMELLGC

B1: MAB13 IgG4 S228P (antibody, V domains shown)
VH: QVQLQQWGAGLLKPSETLSLTCAVYGGSFRGYYWEWIRQPPGKGLEWIGEISHSGSTNYNPSLKSRVTISVDTSKNQFSLKLSSVTAADTAVYYCARARPYREPYGMDVWGQGTTVTVSS
VL: DIQLTQSPSSVSASVGDRVTITCRASQDISSWLAWYQQKPGKAPKLLIYAASSLQSGVPSRFSGSGSGTDFTLTISSLQPEDFATYYCQQELAFPRTFGGGTKVEIKR
In the case of B1, the Kd with Mouse NRP-1 His was found to be 3.7 nM; in the experiment with Human NRP-1 His, 0.96 nM; with Cyno NRP-1 His it was 0.94 nM. The IC50 stood at 2.9 nM in the experiment with recombinant human NRP-1 [1] and 0.9 nM in the experiment with recombinant human NRP-1 [2].

B2: MAB14 IgG4 S228P (antibody, V domains shown)
VH: B1 VH with I37S, S84P
VL: B1 VL
Turning to B2, the Kd with Mouse NRP-1 His was 2.7 nM; with Human NRP-1 His it was 0.87 nM; with Cyno NRP-1 His, 0.74 nM. In addition, the half-inhibitory concentration (IC50) with recombinant human NRP-1 [1] was 2.5 nM; in the experiment with recombinant human NRP-1 [2], 0.6 nM.

B3: anti-NRP Antibody SEC10 (antibody, human IgG1, kappa, V domains shown)
VH: EVQLVESGGGLVQPGGSLRLSCAASGFTFSSYAMSWVRQAPGKGLEWVSQISPAGGYTNYADSVKGRFTISADTSKNTAYLQMNSLRAEDTAVYYCARGELPYYRMSKVMDVWGQGTLVTVSS
VL: DIQMTQSPSSLSASVGDRVTITCRASQYFSSYLAWYQQKPGKAPKLLIYGASSRASGVPSRFSGSGSGTDFTLTISSLQPEDFATYYCQQYLGSPPTFGQGTKVEIKR
With B3, the binding result in experiment [3] and in experiment [4] was “binds” in each case.

B4: SEC3 (antibody, human IgG1, kappa, V domains shown)
VH: EVQLVESGGGLVQPGGSLRLSCAASGFTISGYGIHWVRQAPGKGLEWVAYIYPDSGYTDYADSVKGRFTISADTSKNTAYLQMNSLRAEDTAVYYCAREDFRNRRRLWYVMDYWGQGTLVTVSS
VL: DIQMTQSPSSLSASVGDRVTITCRASQDVSTAVAWYQQKPGKAPKLLIYSASFLYSGVPSRFSGSGSGTDFTLTISSLQPEDFATYYCQQAWAYLPTFGQGTKVEIKR
notes: Appendix A gives 144 as light chain and 145 as heavy chain; also called pan-anti-NRP-1 antibody
Turning to B4, the binding result in experiment [4] and in experiment [5] was “binds” in each case.
